# Results from patent US20230159645A1 (MERUS N V, published 2023).
# T1: human TGF-βRII (human, UniProt P37173 23-567)
# T1 chain: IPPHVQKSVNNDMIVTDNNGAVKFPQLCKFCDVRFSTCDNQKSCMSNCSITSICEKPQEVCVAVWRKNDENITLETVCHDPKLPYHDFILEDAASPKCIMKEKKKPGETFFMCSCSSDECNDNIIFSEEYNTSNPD
# B1: Reference TGF-βRII antibody TGF1 analog (antibody, human IgG1, kappa, V domains shown)
# VH: QLQVQESGPGLVKPSETLSLTCTVSGGSISNSYFSWGWIRQPPGKGLEWIGSFYYGEKTYYNPSLKSRATISIDTSKSQFSLKLSSVTAADTAVYYCPRGPTMIRGVIDSWGQGTLVTVSS
# VL: EIVLTQSPATLSLSPGERATLSCRASQSVRSYLAWYQQKPGQAPRLLIYDASNRATGIPARFSGSGSGTDFTLTISSLEPEDFAVYYCQQRSNWPPTFGQGTKVEIKR
# What was measured:
# [1] = molecular target: T1, human TGF-βRII; test: cell-based or functional assay
# [2] = molecular target: T1, human TGF-βRII; test: cell-based or functional assay
binder,measurement,setting,value
B1,Fold difference pSMAD PD-1^null vs PD-1^+,[1],1.3 fold
same,"HEK-BLUE-PD-1 TGF-β Reporter Assay, HEK-Blue TGF-β cells",[2],0.806
same,"HEK-BLUE-PD-1 TGF-β Reporter Assay, HEK-Blue TGF-β-PD-1+ cells",[2],0.655
